In patent US20240228579A1 (Innovent, published 2024):
Numbering of substitutions follows the chain as printed.

B1: Fcmut-20 (antibody, human IgG4 S228P, kappa)
heavy: QVQLVQSGAEVKKPGSSVKVSCKASGYSFSSYNIHWVRQAPGQGLEWMGYIAPFQGDSRYNQKFKGRVTITADKSTSTAYMELSSLRSEDTAVYYCARLNRGNSLDYWGQGTLVTVSSASTKGPSVFPLAPCSRSTSESTAALGCLVKDYFPEPVTVSWNSGALTSGVHTFPAVLQSSGLYSLSSVVTVPSSSLGTKTYTCNVDHKPSNTKVDKRVESKYGPPCPPCPAPEFLGGPSVFLFPPKPKDTLMISRTPEVTCVVVDVSQEDPEVQFNWYVDGVEVHNAKTKPREEQFNSTYRVVSVLTVLHQDWLNGKEYKCKVSNKGLSIEKTISKAKGQPREPQVYTLPPSQEEMTKNQVSLTCLVKGFYPSDIAVEWESNGQPENNYKTTPPVLDSDGSFFLYSRLTVDKSRWQEGNVFSCSVMHEALHNHYTQKSLSLSLGK
light: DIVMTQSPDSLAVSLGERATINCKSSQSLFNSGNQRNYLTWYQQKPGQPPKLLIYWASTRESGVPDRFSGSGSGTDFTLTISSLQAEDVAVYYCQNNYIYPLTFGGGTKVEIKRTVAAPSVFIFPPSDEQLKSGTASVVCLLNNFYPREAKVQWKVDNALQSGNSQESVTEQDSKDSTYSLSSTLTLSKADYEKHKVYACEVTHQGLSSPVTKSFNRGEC
notes: IgG4-mut: deletion of 329 and 330 (EU index)
B2: Fcmut-24 (antibody, human IgG4 S228P, kappa, F234A L235A)
heavy: B1 heavy with F232A, L233A
light: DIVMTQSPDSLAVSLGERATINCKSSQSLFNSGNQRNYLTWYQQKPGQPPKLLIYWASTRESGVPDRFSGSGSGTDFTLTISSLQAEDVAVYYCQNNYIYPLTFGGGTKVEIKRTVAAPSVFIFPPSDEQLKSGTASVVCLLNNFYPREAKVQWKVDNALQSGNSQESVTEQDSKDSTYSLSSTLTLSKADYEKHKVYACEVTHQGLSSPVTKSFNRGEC
notes: also called Fcmut-024
B3: Fcmut-19 (antibody, human IgG4 S228P, kappa)
heavy: QVQLVQSGAEVKKPGSSVKVSCKASGYSFSSYNIHWVRQAPGQGLEWMGYIAPFQGDSRYNQKFKGRVTITADKSTSTAYMELSSLRSEDTAVYYCARLNRGNSLDYWGQGTLVTVSSASTKGPSVFPLAPCSRSTSESTAALGCLVKDYFPEPVTVSWNSGALTSGVHTFPAVLQSSGLYSLSSVVTVPSSSLGTKTYTCNVDHKPSNTKVDKRVESKYGPPCPPCPAPEFLGGPSVFLFPPKPKDTLMISRTPEVTCVVVDVSQEDPEVQFNWYVDGVEVHNAKTKPREEQFNSTYRVVSVLTVLHQDWLNGKEYKCKVSNKGLGSIEKTISKAKGQPREPQVYTLPPSQEEMTKNQVSLTCLVKGFYPSDIAVEWESNGQPENNYKTTPPVLDSDGSFFLYSRLTVDKSRWQEGNVFSCSVMHEALHNHYTQKSLSLSLGK
light: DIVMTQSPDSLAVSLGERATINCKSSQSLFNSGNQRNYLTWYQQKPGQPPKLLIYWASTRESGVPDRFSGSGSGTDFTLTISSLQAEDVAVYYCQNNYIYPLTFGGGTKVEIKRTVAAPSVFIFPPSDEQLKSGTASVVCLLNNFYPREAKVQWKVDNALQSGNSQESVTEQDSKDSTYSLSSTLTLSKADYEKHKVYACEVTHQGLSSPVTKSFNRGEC
notes: IgG4-mut: deletion of 329, G at 330 (EU index)
B4: Fcmut-22 (antibody, human IgG4 S228P, kappa, F234A L235A)
heavy: B3 heavy with F232A, L233A, G327S
light: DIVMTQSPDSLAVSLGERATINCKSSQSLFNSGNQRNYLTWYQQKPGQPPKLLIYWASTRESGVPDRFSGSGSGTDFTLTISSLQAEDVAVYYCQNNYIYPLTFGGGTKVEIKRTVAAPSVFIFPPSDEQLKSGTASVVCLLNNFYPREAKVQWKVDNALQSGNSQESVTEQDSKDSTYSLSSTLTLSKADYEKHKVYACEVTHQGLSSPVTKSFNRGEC
B5: Fcmut-23 (antibody, human IgG4 S228P, kappa, F234A L235A)
heavy: B3 heavy with F232A, L233A
light: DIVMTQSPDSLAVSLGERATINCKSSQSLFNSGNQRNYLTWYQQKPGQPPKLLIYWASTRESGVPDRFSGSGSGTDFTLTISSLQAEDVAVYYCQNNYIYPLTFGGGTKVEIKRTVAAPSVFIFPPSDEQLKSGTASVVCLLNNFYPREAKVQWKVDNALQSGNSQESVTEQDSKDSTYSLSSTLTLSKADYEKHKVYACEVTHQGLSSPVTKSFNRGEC

These binders were tested against T1, human C1q (human, UniProt P02745 23-245; P02746 28-253; P02747 29-245) (assay: BLI (Octet), biotinylated antibody on SA sensor).
T1 construct: Bought C1q (Complement Technology); also called C1q antigen
T1 sequence (P02745 23-245 limits assumed, chain 1 of 3): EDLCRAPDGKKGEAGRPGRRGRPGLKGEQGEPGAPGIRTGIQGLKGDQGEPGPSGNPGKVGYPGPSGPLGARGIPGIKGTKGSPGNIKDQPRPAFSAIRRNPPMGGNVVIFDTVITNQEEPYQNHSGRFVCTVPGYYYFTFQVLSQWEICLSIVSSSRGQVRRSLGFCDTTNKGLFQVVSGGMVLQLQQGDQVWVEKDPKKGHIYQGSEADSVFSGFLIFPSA
T1 sequence (P02746 28-253 limits assumed, chain 2 of 3): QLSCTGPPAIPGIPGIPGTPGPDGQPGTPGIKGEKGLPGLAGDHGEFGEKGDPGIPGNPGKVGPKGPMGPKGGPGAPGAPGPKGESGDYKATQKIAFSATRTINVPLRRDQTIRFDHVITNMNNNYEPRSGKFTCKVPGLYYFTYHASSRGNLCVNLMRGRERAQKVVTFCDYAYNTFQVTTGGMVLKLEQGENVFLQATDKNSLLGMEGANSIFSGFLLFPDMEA
T1 sequence (P02747 29-245 limits assumed, chain 3 of 3): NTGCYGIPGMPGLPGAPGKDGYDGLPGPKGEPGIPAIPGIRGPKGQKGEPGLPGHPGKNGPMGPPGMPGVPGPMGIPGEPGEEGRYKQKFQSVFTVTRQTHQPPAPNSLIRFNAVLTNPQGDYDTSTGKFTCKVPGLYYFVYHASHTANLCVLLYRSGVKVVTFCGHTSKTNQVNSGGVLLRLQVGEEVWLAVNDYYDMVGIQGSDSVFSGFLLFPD
Experimental: The antibody was diluted to approximately 100 nM, and C1q (Δ099, Complement Technology) was diluted to 40 nM.
Detection was conducted using Fortebio Octet Red96e, and the sensors were arranged according to the positions of the samples. […] After the experiment was completed, KD values were analyzed using ForteBio Octet analysis software, the coordinate axis data were derived, and Graphpad Prism 8 software was used for plotting.

Binding result, no binding (tested: C1q 40 nM):
B1
B2
B3
B4
B5
